Assay results: US7820375 (INSTITUT NATIONAL DE LA SANTE ET DE LA RECHERCHE MEDICALE …, dated 2010)

B1: Act-CRMP5 (complete human CRMP 5 protein fused to NLS-B42-HA, prey) (other, UniProt Q9BPU6 1-564, looked up, not shown: large carriers)
chain: MLANSASVRILIKGGKVVNDDCTHEADVYIENGIIQQVGRELMIPGGAKVIDATGKLVIPGGIDTSTHFHQTFMNATCVDDFYHGTKAALVGGTTMIIGHVLPDKETSLVDAYEKCRGLADPKVCCDYALHVGITWWAPKVKAEMETLVREKGVNSFQMFMTYKDLYMLRDSELYQVLHACKDIGAIARVHAENGELVAEGAKEALDLGITGPEGIEISRPEELEAEATHRVITIANRTHCPIYLVNVSSISAGDVIAAAKMQGKVVLAETTTAHATLTGLHYYHQDWSHAAAYVTVPPLRLDTNTSTYLMSLLANDTLNIVASDHRPFTTKQKAMGKEDFTKIPHGVSGVQDRMSVIWERGVVGGKMDENRFVAVTSSNAAKLLNLYPRKGRIIPGADADVVVWDPEATKTISASTQVQGGDFNLYENMRCHGVPLVTISRGRVVYENGVFMCAEGTGKFCPLRSFPDTVYKKLVQREKTLKVRGVDRTPYLGDVAVVVHPGKKEMGTPLADTPTRPVTRHGGMRDLHESSFSLSGSQIDDHVPKRASARILAPPGGRSSGIW

Assays:
[1] = target: T1, LexA-CRMP5 (complete human CRMP 5 protein fused to LexA, bait) (human, UniProt P0A7C2 1-202; Q9BPU6 1-564); test: yeast two-hybrid by conjugation, LexA bait and Act prey, lacZ reporter (X-gal)
T1 sequence (looked up): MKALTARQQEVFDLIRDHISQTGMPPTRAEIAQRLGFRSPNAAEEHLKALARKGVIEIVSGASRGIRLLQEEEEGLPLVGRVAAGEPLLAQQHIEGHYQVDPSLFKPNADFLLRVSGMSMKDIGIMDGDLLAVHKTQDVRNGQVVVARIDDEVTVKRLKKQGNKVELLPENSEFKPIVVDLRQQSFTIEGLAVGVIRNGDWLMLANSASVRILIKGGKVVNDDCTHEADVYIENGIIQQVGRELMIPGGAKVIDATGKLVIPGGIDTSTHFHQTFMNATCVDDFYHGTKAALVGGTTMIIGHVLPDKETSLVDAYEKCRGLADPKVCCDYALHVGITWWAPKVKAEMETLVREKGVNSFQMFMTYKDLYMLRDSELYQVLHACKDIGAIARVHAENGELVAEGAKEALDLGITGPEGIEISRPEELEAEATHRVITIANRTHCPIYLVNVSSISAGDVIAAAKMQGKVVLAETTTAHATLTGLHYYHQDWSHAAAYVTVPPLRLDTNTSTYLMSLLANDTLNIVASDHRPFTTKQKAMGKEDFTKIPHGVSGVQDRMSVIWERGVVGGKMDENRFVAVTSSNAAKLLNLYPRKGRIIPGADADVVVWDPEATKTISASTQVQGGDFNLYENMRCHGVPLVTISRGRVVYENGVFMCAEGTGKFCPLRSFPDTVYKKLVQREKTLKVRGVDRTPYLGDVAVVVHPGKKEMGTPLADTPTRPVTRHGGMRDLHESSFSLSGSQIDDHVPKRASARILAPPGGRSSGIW

[2] = target: B1; test: yeast two-hybrid by conjugation, lacZ reporter (X-gal)

## B1
[1]
  binding result: binds

B2: LexA (bait vector without insert) (other)
chain: MKALTARQQEVFDLIRDHISQTGMPPTRAEIAQRLGFRSPNAAEEHLKALARKGVIEIVSGASRGIRLLQEEEEGLPLVGRVAAGEPLLAQQHIEGHYQVDPSLFKPNADFLLRVSGMSMKDIGIMDGDLLAVHKTQDVRNGQVVVARIDDEVTVKRLKKQGNKVELLPENSEFKPIVVDLRQQSFTIEGLAVGVIRNGDWL
notes: range 1-202
[2]
  binding result: no binding
